In US20200010519A1, “NUCLEASE FUSIONS FOR ENHANCING GENOME EDITING BY HOMOLOGY-DIRECTED TRANSGENE INTEGRATION” (INSTITUT NATIONAL DE LA SANTE ET DE LA RECHERCHE …, priority 2017, published 2020):

B1: HE3: Cas9 fused to HE3 (166-296 aa of CtIP; SEQ ID NO. 14) containing the 3 CDK phosphorylation sites (protein, UniProt Q99708 166-296, looked up, fragment)
chain: TAFSFSGVNRLRRKENPHVRYIEQTHTKLEHSVCANEMRKVSKSSTHPQHNPNENEILVADTYDQSQSPMAKAHGTSSYTPDKSSFNLATVVAETLGLGVQEESETQGPMSPLGDELYHCLEGNHKKQPFE
modifications: fused to Cas9
notes: Cas9 fused to HE3 (166-296 aa of CtIP; 14) containing the 3 CDK phosphorylation sites
B2: HE2: Cas9 fused to HE2 (46-296 aa of CtIP; SEQ ID NO. 13), lacking the first 45 aa (protein, UniProt Q99708 46-296, looked up, fragment)
chain: KQERILDAQRLEEFFTKNQQLREQQKVLHETIKVLEDRLRAGLCDRCAVTEEHMRKKQQEFENIRQQNLKLITELMNERNTLQEENKKLSEQLQQKIENDQQHQAAELECEEDVIPDSPITAFSFSGVNRLRRKENPHVRYIEQTHTKLEHSVCANEMRKVSKSSTHPQHNPNENEILVADTYDQSQSPMAKAHGTSSYTPDKSSFNLATVVAETLGLGVQEESETQGPMSPLGDELYHCLEGNHKKQPFE
modifications: fused to Cas9
notes: Cas9 fused to HE2 (46-296 aa of CtIP; 13), lacking the first 45 aa

System: AAVS1 locus
Assay: HDI of GFP cDNA at AAVS1 locus, FACS analysis, HEK293 cells
Format: cell-based, human

| Molecule | HDI of GFP cDNA (homology-directed insertion of the GFP donor) |
| --- | --- |
| B1 | HE1 was the only fragment shown to significantly stimulate |
| B2 | HE1 was the only fragment shown to significantly stimulate |
